Experimental findings from PMC10208892 (The Journal of Biological Chemistry, 2023) are described below.

Where a chain is given by its changes, count along the chain named.

Test [1] has as its target T1, VPS33B, untagged, expressed in yeast (human, UniProt Q9H267 1-617).
T1 sequence: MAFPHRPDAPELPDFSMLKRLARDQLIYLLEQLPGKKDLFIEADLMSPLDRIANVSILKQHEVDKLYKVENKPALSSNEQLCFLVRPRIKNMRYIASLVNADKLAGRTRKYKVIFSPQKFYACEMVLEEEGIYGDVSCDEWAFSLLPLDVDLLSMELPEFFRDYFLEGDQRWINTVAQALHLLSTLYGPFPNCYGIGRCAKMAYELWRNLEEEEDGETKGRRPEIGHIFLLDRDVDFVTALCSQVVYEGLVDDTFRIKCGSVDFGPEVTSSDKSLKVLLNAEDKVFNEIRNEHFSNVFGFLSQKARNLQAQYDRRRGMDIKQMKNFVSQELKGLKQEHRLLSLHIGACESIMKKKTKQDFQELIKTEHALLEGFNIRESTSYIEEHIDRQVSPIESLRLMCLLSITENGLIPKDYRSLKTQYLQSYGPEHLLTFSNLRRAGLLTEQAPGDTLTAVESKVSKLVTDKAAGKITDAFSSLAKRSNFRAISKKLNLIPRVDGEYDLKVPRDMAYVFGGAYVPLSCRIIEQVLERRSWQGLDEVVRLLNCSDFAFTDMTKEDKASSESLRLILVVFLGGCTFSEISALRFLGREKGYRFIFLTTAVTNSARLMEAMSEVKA
The test is described as follows: co-IP.

The target of test [2] is T2, VPS33B with C-terminal biotinylation signal (human, UniProt Q9H267 1-617, biotin on lysine 41 of the biotinylation signal).
T2 sequence: T1 sequence
In words: co-IP.

The target of a further test is T3, VPS33B S243F (human, UniProt Q9H267 1-617, S243F).
T3 sequence: T1 sequence with S243F
In words: co-IP.

Another test concerns the target T4, VPS33B H344D (human, UniProt Q9H267 1-617, H344D).
T4 sequence: T1 sequence with H344D
The test is described as follows: co-IP.

In test [3] the target is T1, VPS33B, untagged, expressed in yeast. In words: native gel or EMSA. (In general: A gel shift assay detects complexes by their altered migration in electrophoresis.)
Test [4] has as its target T5, HA-VPS33B, expressed in yeast (human, UniProt Q9H267 1-617).
T5 sequence: T1 sequence
The test is described as follows: co-IP.

B1: VPS16B(143–316)-3xFLAG (domain or fragment)
chain: RPKGEYRDYSNDWSPSDTVRRLRKGKVCSLERFRSLQDKLQLLEEAVSMHDGNVITAVLIFLKRTLSKEILFRELEVRQVALRHLIHFLKEIGDQKLLLDLFRFLDRTEELALSHYREHLNIQDPDKRKEFLKTCVGLPFSAEDSAHIQDHYTLLERQIIIEANDRHLESAGQT
Regarding B1, the binding result in test [1] is recorded as “binds”.

B2: VPS16B(143–493)-3xFLAG (domain or fragment)
chain: RPKGEYRDYSNDWSPSDTVRRLRKGKVCSLERFRSLQDKLQLLEEAVSMHDGNVITAVLIFLKRTLSKEILFRELEVRQVALRHLIHFLKEIGDQKLLLDLFRFLDRTEELALSHYREHLNIQDPDKRKEFLKTCVGLPFSAEDSAHIQDHYTLLERQIIIEANDRHLESAGQTEIFRKHPRKASILNMPLVTTLFYSCFYHYTEAEGTFSSPVNLKKTFKIPDKQYVLTALAARAKLRAWNDVDALFTTKNWLGYTKKRAPIGFHRVVEILHKNNAPVQILQEYVNLVEDVDTKLNLATKFKCHDVVIDTYRDLKDRQQLLAYRSKVDKGSAEEEKIDALLSSSQIRWKN
With B2, the binding result in test [1] is reported as “binds”.

B3: VPS16B-3xFLAG, expressed in yeast (natural protein)
chain: MNRTKGDEEEYWNSSKFKAFTFDDEDDELSQLKESKRAVNSLRDFVDDDDDDDLERVSWSGEPVGSISWSIRETAGNSGSTHEGREQLKSRNSFSSYAQLPKPTSTYSLSSFFRGRTRPGSFQSLSDALSDTPAKSYAPELGRPKGEYRDYSNDWSPSDTVRRLRKGKVCSLERFRSLQDKLQLLEEAVSMHDGNVITAVLIFLKRTLSKEILFRELEVRQVALRHLIHFLKEIGDQKLLLDLFRFLDRTEELALSHYREHLNIQDPDKRKEFLKTCVGLPFSAEDSAHIQDHYTLLERQIIIEANDRHLESAGQTEIFRKHPRKASILNMPLVTTLFYSCFYHYTEAEGTFSSPVNLKKTFKIPDKQYVLTALAARAKLRAWNDVDALFTTKNWLGYTKKRAPIGFHRVVEILHKNNAPVQILQEYVNLVEDVDTKLNLATKFKCHDVVIDTYRDLKDRQQLLAYRSKVDKGSAEEEKIDALLSSSQIRWKN
On to B3, for which the binding result (in test [2]; with VPS33B S243F; in the test with VPS33B H344D; in test [3]) was “binds” in each case.

B4: HA-VPS16B-3xFLAG, expressed in yeast (natural protein)
chain: B3 chain
In the case of B4, the binding result in test [4] is given as “binds”.
